B1: Keratin, type II cytoskeletal 6A (Homo sapiens), P02538 (parent)
chain: MASTSTTIRSHSSSRRGFSANSARLPGVSRSGFSSVSVSRSRGSGGLGGACGGAGFGSRSLYGLGGSKRISIGGGSCAISGGYGSRAGGSYGFGGAGSGFGFGGGAGIGFGLGGGAGLAGGFGGPGFPVCPPGGIQEVTVNQSLLTPLNLQIDPTIQRVRAEEREQIKTLNNKFASFIDKVRFLEQQNKVLETKWTLLQEQGTKTVRQNLEPLFEQYINNLRRQLDSIVGERGRLDSELRGMQDLVEDFKNKYEDEINKRTAAENEFVTLKKDVDAAYMNKVELQAKADTLTDEINFLRALYDAELSQMQTHISDTSVVLSMDNNRNLDLDSIIAEVKAQYEEIAQRSRAEAESWYQTKYEELQVTAGRHGDDLRNTKQEIAEINRMIQRLRSEIDHVKKQCANLQAAIADAEQRGEMALKDAKNKLEGLEDALQKAKQDLARLLKEYQELMNVKLALDVEIATYRKLLEGEECRLNGEGVGQVNISVVQSTVSSGYGGASGVGSGLGLGGGSSYSYGSGLGVGGGFSSSSGRAIGGGLSSVGGGSSTIKYTTTSSSSRKSYKH
partner: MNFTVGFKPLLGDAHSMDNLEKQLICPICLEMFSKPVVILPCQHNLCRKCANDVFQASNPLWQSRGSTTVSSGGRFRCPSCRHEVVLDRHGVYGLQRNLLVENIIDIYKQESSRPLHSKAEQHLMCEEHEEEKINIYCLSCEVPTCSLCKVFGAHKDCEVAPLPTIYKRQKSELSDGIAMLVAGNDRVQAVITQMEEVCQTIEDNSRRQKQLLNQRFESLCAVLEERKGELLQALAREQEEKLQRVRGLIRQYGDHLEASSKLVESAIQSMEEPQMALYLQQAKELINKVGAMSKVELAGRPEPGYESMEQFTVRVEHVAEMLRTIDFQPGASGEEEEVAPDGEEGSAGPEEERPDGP
B2: Inactive peptidyl-prolyl cis-trans isomerase FKBP6 (Homo sapiens), O75344 (parent)
chain: MGGSALNQGVLEGDDAPGQSLYERLSQRMLDISGDRGVLKDVIREGAGDLVAPDASVLVKYSGYLEHMDRPFDSNYFRKTPRLMKLGEDITLWGMELGLLSMRRGELARFLFKPNYAYGTLGCPPLIPPNTTVLFEIELLDFLDCAESDKFCALSAEQQDQFPLQKVLKVAATEREFGNYLFRQNRFYDAKVRYKRALLLLRRRSAPPEEQHLVEAAKLPVLLNLSFTYLKLDRPTIALCYGEQALIIDQKNAKALFRCGQACLLLTEYQKARDFLVRAQKEQPFNHDINNELKKLASCYRDYVDKEKEMWHRMFAPCGDGSTAGES
partner: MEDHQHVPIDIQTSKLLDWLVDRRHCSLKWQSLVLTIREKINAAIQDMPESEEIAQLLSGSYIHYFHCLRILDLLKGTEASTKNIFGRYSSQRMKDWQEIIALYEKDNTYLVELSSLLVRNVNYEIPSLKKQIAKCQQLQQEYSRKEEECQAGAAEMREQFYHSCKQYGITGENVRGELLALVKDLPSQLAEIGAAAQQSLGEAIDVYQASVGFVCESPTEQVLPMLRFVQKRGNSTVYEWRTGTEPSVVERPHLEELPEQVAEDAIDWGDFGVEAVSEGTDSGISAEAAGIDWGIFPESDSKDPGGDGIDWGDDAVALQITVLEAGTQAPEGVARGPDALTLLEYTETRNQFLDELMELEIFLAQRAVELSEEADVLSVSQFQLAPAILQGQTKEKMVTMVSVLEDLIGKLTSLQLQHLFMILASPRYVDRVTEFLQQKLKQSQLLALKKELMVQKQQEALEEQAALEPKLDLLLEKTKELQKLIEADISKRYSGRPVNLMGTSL
B3: Plakophilin-2 (Homo sapiens), Q99959 (parent)
chain: MAAPGAPAEYGYIRTVLGQQILGQLDSSSLALPSEAKLKLAGSSGRGGQTVKSLRIQEQVQQTLARKGRSSVGNGNLHRTSSVPEYVYNLHLVENDFVGGRSPVPKTYDMLKAGTTATYEGRWGRGTAQYSSQKSVEERSLRHPLRRLEISPDSSPERAHYTHSDYQYSQRSQAGHTLHHQESRRAALLVPPRYARSEIVGVSRAGTTSRQRHFDTYHRQYQHGSVSDTVFDSIPANPALLTYPRPGTSRSMGNLLEKENYLTAGLTVGQVRPLVPLQPVTQNRASRSSWHQSSFHSTRTLREAGPSVAVDSSGRRAHLTVGQAAAGGSGNLLTERSTFTDSQLGNADMEMTLERAVSMLEADHMLPSRISAAATFIQHECFQKSEARKRVNQLRGILKLLQLLKVQNEDVQRAVCGALRNLVFEDNDNKLEVAELNGVPRLLQVLKQTRDLETKKQITDHTVNLRSRNGWPGAVAHACNPSTLGGQGGRITRSGVRDQPDQHGLLWNLSSNDKLKNLMITEALLTLTENIIIPFSGWPEGDYPKANGLLDFDIFYNVTGCLRNMSSAGADGRKAMRRCDGLIDSLVHYVRGTIADYQPDDKATENCVCILHNLSYQLEAELPEKYSQNIYIQNRNIQTDNNKSIGCFGSRSRKVKEQYQDVPMPEEKSNPKGVEWLWHSIVIRMYLSLIAKSVRNYTQEASLGALQNLTAGSGPMPTSVAQTVVQKESGLQHTRKMLHVGDPSVKKTAISLLRNLSRNLSLQNEIAKETLPDLVSIIPDTVPSTDLLIETTASACYTLNNIIQNSYQNARDLLNTGGIQKIMAISAGDAYASNKASKAASVLLYSLWAHTELHHAYKKAQFKKTDFVNSRTAKAYHSLKD
partner: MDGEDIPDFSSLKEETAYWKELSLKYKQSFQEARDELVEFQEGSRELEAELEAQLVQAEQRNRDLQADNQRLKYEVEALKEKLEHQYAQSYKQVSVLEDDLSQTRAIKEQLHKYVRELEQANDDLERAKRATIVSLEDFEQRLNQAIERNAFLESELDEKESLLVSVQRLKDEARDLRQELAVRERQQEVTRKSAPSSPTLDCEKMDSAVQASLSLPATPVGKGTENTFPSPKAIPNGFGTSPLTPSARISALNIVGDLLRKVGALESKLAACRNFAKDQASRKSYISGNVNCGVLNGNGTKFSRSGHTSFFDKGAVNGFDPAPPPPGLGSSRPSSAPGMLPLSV
B4: Plakophilin-2 (Homo sapiens), Q99959 (parent)
chain: B3 chain
partner: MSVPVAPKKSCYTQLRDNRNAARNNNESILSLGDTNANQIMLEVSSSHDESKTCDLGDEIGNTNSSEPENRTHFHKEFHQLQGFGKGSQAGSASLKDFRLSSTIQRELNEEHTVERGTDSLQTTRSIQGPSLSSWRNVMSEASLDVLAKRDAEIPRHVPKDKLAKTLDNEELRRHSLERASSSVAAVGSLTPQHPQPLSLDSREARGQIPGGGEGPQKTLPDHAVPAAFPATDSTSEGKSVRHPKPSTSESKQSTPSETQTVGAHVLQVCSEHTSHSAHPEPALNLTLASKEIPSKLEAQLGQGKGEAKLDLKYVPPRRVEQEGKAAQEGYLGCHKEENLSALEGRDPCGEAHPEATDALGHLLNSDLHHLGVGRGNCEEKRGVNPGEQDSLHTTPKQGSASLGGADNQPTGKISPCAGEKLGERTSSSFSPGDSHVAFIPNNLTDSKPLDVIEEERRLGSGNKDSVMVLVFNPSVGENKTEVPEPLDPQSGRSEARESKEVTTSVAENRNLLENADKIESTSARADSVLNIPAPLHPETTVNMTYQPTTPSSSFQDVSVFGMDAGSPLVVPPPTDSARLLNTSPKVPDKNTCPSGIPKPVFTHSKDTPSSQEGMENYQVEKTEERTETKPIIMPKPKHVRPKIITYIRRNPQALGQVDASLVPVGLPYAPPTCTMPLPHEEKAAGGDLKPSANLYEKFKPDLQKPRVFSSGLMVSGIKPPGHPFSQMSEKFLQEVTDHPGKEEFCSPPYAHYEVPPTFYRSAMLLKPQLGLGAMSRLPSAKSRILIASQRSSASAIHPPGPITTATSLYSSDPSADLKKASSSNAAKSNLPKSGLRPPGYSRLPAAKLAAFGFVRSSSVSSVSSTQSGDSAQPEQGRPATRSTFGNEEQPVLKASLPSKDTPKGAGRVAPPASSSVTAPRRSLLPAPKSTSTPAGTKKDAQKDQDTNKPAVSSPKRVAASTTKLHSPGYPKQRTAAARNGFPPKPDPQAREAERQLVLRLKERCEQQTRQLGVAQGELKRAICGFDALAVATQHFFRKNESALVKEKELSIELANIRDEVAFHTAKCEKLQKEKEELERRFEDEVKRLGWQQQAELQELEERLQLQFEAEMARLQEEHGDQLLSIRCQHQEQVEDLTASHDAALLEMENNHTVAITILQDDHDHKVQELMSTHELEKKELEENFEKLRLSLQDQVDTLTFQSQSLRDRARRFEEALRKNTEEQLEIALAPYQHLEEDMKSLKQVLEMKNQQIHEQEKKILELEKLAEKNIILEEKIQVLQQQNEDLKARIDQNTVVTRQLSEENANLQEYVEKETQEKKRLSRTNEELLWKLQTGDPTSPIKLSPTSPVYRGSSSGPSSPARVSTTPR
B5: Keratin, type II cytoskeletal 2 epidermal (Homo sapiens), P35908 (parent)
chain: MSCQISCKSRGRGGGGGGFRGFSSGSAVVSGGSRRSTSSFSCLSRHGGGGGGFGGGGFGSRSLVGLGGTKSISISVAGGGGGFGAAGGFGGRGGGFGGGSSFGGGSGFSGGGFGGGGFGGGRFGGFGGPGGVGGLGGPGGFGPGGYPGGIHEVSVNQSLLQPLNVKVDPEIQNVKAQEREQIKTLNNKFASFIDKVRFLEQQNQVLQTKWELLQQMNVGTRPINLEPIFQGYIDSLKRYLDGLTAERTSQNSELNNMQDLVEDYKKKYEDEINKRTAAENDFVTLKKDVDNAYMIKVELQSKVDLLNQEIEFLKVLYDAEISQIHQSVTDTNVILSMDNSRNLDLDSIIAEVKAQYEEIAQRSKEEAEALYHSKYEELQVTVGRHGDSLKEIKIEISELNRVIQRLQGEIAHVKKQCKNVQDAIADAEQRGEHALKDARNKLNDLEEALQQAKEDLARLLRDYQELMNVKLALDVEIATYRKLLEGEECRMSGDLSSNVTVSVTSSTISSNVASKAAFGGSGGRGSSSGGGYSSGSSSYGSGGRQSGSRGGSGGGGSISGGGYGSGGGSGGRYGSGGGSKGGSISGGGYGSGGGKHSSGGGSRGGSSSGGGYGSGGGGSSSVKGSSGEAFGSSVTFSFR
partner: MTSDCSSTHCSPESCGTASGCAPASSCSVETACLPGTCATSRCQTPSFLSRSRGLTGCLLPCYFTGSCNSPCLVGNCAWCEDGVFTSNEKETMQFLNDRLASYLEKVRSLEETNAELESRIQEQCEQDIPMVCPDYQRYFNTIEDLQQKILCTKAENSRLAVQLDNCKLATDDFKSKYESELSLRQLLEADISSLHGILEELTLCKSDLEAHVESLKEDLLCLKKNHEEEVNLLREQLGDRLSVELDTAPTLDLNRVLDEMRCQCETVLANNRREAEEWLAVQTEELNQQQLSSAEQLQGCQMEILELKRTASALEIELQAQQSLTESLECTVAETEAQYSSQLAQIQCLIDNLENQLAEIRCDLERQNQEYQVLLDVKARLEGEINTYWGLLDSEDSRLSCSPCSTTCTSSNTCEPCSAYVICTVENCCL

Variants of: B1
Conditions: with tri54_human TRIM54, Q9BYV2

Variant	effect of a mutation on the interaction
A463P	disrupting interaction

Variants of: B2
Conditions: with ck5p3_human CDK5RAP3, Q96JB5

Variant	effect of a mutation on the interaction
F72L	disrupting interaction

Variants of: B3
Conditions: with ndel1_human NDEL1, Q9GZM8

Variant	effect of a mutation on the interaction
S644P	disrupting interaction

Variants of: B3
Conditions: with ndel1_human NDEL1, Q9GZM8
Remark: another data set of the same source

Variant	effect of a mutation on the interaction
S140F	disrupting interaction

Variants of: B4
Conditions: with mtus2_human MTUS2, Q5JR59

Variant	effect of a mutation on the interaction
S140F	disrupting interaction

Variants of: B4
Conditions: with mtus2_human MTUS2, Q5JR59
Remark: another data set of the same source

Variant	effect of a mutation on the interaction
S644P	disrupting interaction

Variants of: B5
Conditions: with KRT40, Q6A162

Variant	effect of a mutation on the interaction
I477N	disrupting interaction

Variants of: B5
Conditions: with KRT40, Q6A162
Remark: another data set of the same source

Variant	effect of a mutation on the interaction
L484P	disrupting interaction
